To fix the notation:
B1: [PPE172_(15)], recombinant polyprotein of 15 tandem repeats of the human titin exon 172 PEVK module (other)
chain: PEPPKEVVPEKKAPVAPPKKPEVPPVKVPEPPKEVVPEKKAPVAPPKKPEVPPVKVPEPPKEVVPEKKAPVAPPKKPEVPPVKVPEPPKEVVPEKKAPVAPPKKPEVPPVKVPEPPKEVVPEKKAPVAPPKKPEVPPVKVPEPPKEVVPEKKAPVAPPKKPEVPPVKVPEPPKEVVPEKKAPVAPPKKPEVPPVKVPEPPKEVVPEKKAPVAPPKKPEVPPVKVPEPPKEVVPEKKAPVAPPKKPEVPPVKVPEPPKEVVPEKKAPVAPPKKPEVPPVKVPEPPKEVVPEKKAPVAPPKKPEVPPVKVPEPPKEVVPEKKAPVAPPKKPEVPPVKVPEPPKEVVPEKKAPVAPPKKPEVPPVKVPEPPKEVVPEKKAPVAPPKKPEVPPVKVPEPPKEVVPEKKAPVAPPKKPEVPPVKV
B2: nebulin SH3 (domain or fragment, human, UniProt P20929 8466-8525, looked up)
chain: TAGKIFRAMYDYMAADADEVSFKDGDAIINVQAIDEGWMYGTVQRTGRTGMLPANYVEAI

For experiment [1], the target named is B2. Description: ELISA. In general terms: An ELISA detects its analyte on a solid surface through an enzyme-linked reagent.
For experiment [2], the target named is B2. Description: ELISA. The source holds these as a separate data set.
The target in experiment [3] is B2. Description: SPR. On the technique in general: In SPR one partner is held on a chip, and binding of the other changes the refractive index at the surface.
The target in experiment [4] is B1. Description: ELISA.
Experiment [5] concerns the target B1. Description: ELISA.

Read-outs that look alike come from different tables or passages of the source.

A word on the Kd: it is a measure of binding affinity in units of concentration. Consider B1, for which the Kd with nebulin SH3 [1] worked out at 7 µM; with nebulin SH3 [2], 23 µM; with nebulin SH3 [3] it was 340 µM.
For the molecule B2, the “KD in the presence of 50 μg/ml RT11” value came to 9.69 µM in experiment [4] and 471 µM in experiment [5].
